Measured values reported in patent US20220251236A1 (Boehringer Ingelheim, published 2022).

Experiments:
[1] = target: T1, human DLL3 (endogenous, on SCLC cell lines NCI-H82 and SHP77 and in SCLC tissue) (human, UniProt Q9NYJ7 27-618); experiment: cell-based or functional assay
T1 sequence (looked up): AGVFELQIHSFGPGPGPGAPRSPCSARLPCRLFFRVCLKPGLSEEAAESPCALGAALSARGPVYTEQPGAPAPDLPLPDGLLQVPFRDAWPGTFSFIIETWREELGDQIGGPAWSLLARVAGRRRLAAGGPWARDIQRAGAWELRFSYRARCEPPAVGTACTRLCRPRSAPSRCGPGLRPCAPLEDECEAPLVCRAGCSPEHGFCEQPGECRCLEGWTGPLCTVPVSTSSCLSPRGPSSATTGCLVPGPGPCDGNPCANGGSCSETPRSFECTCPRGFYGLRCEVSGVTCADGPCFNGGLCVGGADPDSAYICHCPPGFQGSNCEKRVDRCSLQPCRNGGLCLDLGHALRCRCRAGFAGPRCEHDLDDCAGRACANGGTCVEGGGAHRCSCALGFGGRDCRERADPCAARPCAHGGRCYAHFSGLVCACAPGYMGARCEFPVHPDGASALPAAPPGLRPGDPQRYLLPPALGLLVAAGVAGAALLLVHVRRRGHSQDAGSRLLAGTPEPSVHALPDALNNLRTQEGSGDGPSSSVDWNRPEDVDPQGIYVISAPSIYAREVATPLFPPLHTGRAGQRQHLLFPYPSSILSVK

[2] = target: T1, human DLL3 (endogenous, on SCLC cell …); experiment: cell-based or functional assay; remark: listed apart in the source
[3] = target: T2, EGF6+MEMBRANE PROXIMAL PEPTIDE; experiment: flow cytometry on HEK293 cells expressing the DLL3 subdomain construct, 1.6 nM binder, PE anti-human secondary, control: secondary antibody only
T2 construct: also called Hu DLL3 EGF6+membrane proximal peptide on HEK293 cells
T2 membrane-anchored DLL3 subdomain construct: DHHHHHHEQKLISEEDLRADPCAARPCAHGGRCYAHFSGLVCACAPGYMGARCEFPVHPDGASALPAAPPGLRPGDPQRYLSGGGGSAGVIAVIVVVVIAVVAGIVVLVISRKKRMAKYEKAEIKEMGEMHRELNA
Experimental: DLL3/CD3 binding proteins were produced by transient transfection of CHO-E cells with the pTT5 vectors carrying the chain-encoding genes, as described in Example 2. […] Bound molecules were detected with PE-conjugated anti-human secondary antibody (Sigma-Aldrich, #P8047). As negative control, cells were incubated with secondary antibody only.
The samples were measured by flow-cytometry. […] The sequences of the epitope domains are listed in Example 5, Table 3.

Cyno DLL3-His = target: T3, Cyno DLL3-His (cynomolgus monkey, UniProt Q9NYJ7 27-492 (human entry)); experiment: SPR; ratio of the KD values for human and cyno DLL3
T3 construct: also called cy DLL3; recombinant cyno DLL3-ECD
T3 chain: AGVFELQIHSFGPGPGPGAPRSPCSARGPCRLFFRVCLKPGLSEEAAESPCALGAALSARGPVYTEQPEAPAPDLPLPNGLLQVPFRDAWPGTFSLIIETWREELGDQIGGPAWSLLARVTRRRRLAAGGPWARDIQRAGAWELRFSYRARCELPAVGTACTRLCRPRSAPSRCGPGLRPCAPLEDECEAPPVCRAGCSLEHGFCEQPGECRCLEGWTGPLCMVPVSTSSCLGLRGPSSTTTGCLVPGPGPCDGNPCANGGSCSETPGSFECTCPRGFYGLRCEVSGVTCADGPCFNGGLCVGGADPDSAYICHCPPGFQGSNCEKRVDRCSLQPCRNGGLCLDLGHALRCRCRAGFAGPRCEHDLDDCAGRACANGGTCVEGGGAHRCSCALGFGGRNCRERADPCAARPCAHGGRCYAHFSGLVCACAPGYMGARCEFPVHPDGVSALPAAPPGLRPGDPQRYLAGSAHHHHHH
Experimental: The binding affinity of purified DLL3/CD3 bispecific constructs for recombinant human and cyno DLL3-ECD and Fc-fusion proteins of human and cyno CD3 εγ subunits was determined by Surface Plasmon Resonance (SPR), using a ProteOn XPR36 instrument (Bio-Rad). The running buffer and all dilutions (except where stated) were done in PBS-T-EDTA. The GLM sensor chip (Bio-Rad) was normalized and pre-conditioned as per the manufacturer's recommendations. The sensor chip was activated with equal mixture of EDC/s-NHS in the horizontal direction for 300 sec at a flow rate of 30 ul/min and immobilized with protein A/G (20 ug/ml in 10 mM acetate pH 4.5) in the horizontal direction for 300 sec at a flowrate of 30 ul/min resulting in ˜5000 RU of protein A/G on the surface. The sensor chip was deactivated with 1M ethanolamine HCl in the horizontal direction for 300 sec at a flowrate of 30 μl/min.
For binding kinetic determination to DLL3, bispecific molecules were captured individually on the protein A/G surface vertically for 250 sec at a flowrate of 25 μl/min. The baseline was stabilized by injecting PBS-T-EDTA for 60 sec at a flowrate of 40 μl/min horizontally. The analyte (hu DLL3 or cy DLL3) was injected horizontally over the captured antibody for 600 sec at a flowrate of 40 μl/min and a dissociation for 2700 sec.
The inter spot (interactions with sensor surface) and blank (PBS-T-EDTA) were subtracted from the raw data.

[4] = target: T4, chicken egg white lysozyme (chicken, UniProt P00698 19-147); experiment: SPR (Biacore T200), lysozyme coupled to CM5 chip, non-specific binding assay
T4 construct: also called Lysozyme (positive)
Experimental: The experiment was performed on a Biacore T200. The dilution, surface preparation, and binding experiments were performed at 25° C. in 1×HBS-EP buffer prepared from 10× HBS-EP. The flow rate for both the immobilization protocol and binding experiment was at 5 μL/min.
To prepare the surface for the non-specific binding experiment, chicken egg white lysozyme and trypsin inhibitor from glycine max soybean were coupled manually to a series S CM5 chip with the surface density of 3000-5000 RU using the amine coupling kit according to the manufacture instructions.
Samples were prepared at 1 μM in 1×HBS-EP buffer. The samples were injected over activated surfaces with a 10 min association and 10 min dissociation. The data was collected using Biacore T200 Control Software version 2.0.1 and analyzed using Biacore T200 Evaluation Software version 3.0.

T4 sequence (P00698 19-147): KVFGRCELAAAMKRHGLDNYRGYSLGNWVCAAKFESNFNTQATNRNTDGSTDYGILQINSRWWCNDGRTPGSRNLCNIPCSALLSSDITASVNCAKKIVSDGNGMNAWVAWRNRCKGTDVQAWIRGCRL

B1: DLL3#2/CD3#1 (bispecific antibody, human IgG1, kappa, lambda, L234A L235A)
chain 1: DIQMTQSPSAMSASVGDRVTITCRASQGISNYLAWFQQKPGKVPEPLIYAASSLQSGVPSRFSGSGSVTEFTLTISSLQPEDFATYYCLQHNSSPYTFGQGTKLEIKRTVAAPSVFIFPPSDEQLKSGTASVVCLLNNFYPREAKVQWKVDNALQSGNSQESVTEQDSKDSTYSLSSTLTLSKADYEKHKVYACEVTHQGLSSPVTKSFNRGECGGGGSEGKSSGSGSESKSTEGKSSGSGSESKSTGGGGSQVQLVQSGAEVKKPGASVKVSCKASGYTFTSYYMHWVRQAPGQGLEWMGIINPSGGSTSYAQKFQGRVTMTRDTSTSTVYMELSSLRSEDTAVYYCARGEAVGGNYYYYGMDVWGQGTTVTVSSASTKGPSVFPLAPSSKSTSGGTAALGCLVKDYFPEPVTVSWNSGALTSGVHTFPAVLQSSGLYSLSSVVTVPSSSLGTQTYICNVNHKPSNTKVDKRVEPKSCDKTHTCPPCPAPEAAGGPSVFLFPPKPKDTLMISRTPEVTCVVVDVSHEDPEVKFNWYVDGVEVHNAKTKPREEQYNSTYRVVSVLTVLHQDWLNGKEYKCKVSNKALPAPIEKTISKAKGQPREPQVYTLPPSREEMTKNQVSLWCLVKGFYPSDIAVEWESNGQPENNYKTTPPVLDSDGSFFLYSKLTVDKSRWQQGNVFSCSVMHEALHNHYTQKSLSLSPG
chain 2: EAVVTQEPSLTVSPGGTVTLTCRSSTGAVTTSNYANWVQEKPGQLPRGLIGGTNKRAPWVPARFSGSLLGGKAALTLSGAQPEDEAEYFCALWYSNLWVFGGGTKLTVLGQPKAAPSVTLFPPSSEELQANKATLVCLISDFYPGAVKVAWKADGSPVNTGVETTTPSKQSNNKYAASSYLSLTPEQWKSHRSYSCQVTHEGSTVEKTVAPAECSGGGGSEGKSSGSGSESKSTEGKSSGSGSESKSTGGGGSEVQLVESGGGLVQPGGSLKLSCAASGFTFNTYAMNWVRQAPGKGLEWVARIRSKYNNYATYYADSVKDRFTISRDDSKNTAYLQMNNLKTEDTAVYYCVRHGNFGNSYVSWFAYWGQGTLVTVSAASTKGPSVFPLAPSSKSTSGGTAALGCLVKDYFPEPVTVSWNSGALTSGVHTFPAVLQSSGLYSLSSVVTVPSSSLGTQTYICNVNHKPSNTKVDKRVEPKSCDKTHTCPPCPAPEAAGGPSVFLFPPKPKDTLMISRTPEVTCVVVDVSHEDPEVKFNWYVDGVEVHNAKTKPREEQYNSTYRVVSVLTVLHQDWLNGKEYKCKVSNKALPAPIEKTISKAKGQPREPQVYTLPPSREEMTKNQVSLSCAVKGFYPSDIAVEWESNGQPENNYKTTPPVLDSDGSFFLVSKLTVDKSRWQQGNVFSCSVMHEALHNRFTQKSLSLSPG
notes: Heterodimer of one DLL3 chain and one CD3 chain (scFab-Fc, knob-in-hole)
[1]
  EC90, 72 hour cytotoxicity assay (LDH release), non-stimulated PBMCs as effector cells, NCI-H82 target cells: 2.9 nM
  EC90, 72 hour cytotoxicity assay (LDH release), non-stimulated PBMCs as effector cells, SHP77 target cells: 3.4 nM
[2]
  EC90, 72 hour cytotoxicity assay, purified T cells as effector cells, NCI-H82 target cells: 1.51 nM
  EC90, 72 hour cytotoxicity assay, purified T cells as effector cells, SHP77 target cells: 0.16 nM
[3]
  binding result: binds

B2: DLL3#3/CD3#1 (bispecific antibody, human IgG1, kappa, lambda, L234A L235A)
chain 1: DIQMTQSPSAMSASVGDRVTITCRASQGISNYLVWFQQKPGKAPKRLIYAVSSLYSGVPSRFSGSGSGTEFTLTISSLQPEDFATYYCLQHDSYPYTFGQGTKLEIKRTVAAPSVFIFPPSDEQLKSGTASVVCLLNNFYPREAKVQWKVDNALQSGNSQESVTEQDSKDSTYSLSSTLTLSKADYEKHKVYACEVTHQGLSSPVTKSFNRGECGGGGSEGKSSGSGSESKSTEGKSSGSGSESKSTGGGGSQVQLVQSGAEVKKPGASVKVSCKASGYTFTSYYVHWVRQAPGQGLEWMVIINPGGGTTSYAQKFLGRVTMTRDTSTNTVYMELKSLRSEDTAVYYCARGEAVTGNYFYYGMDVWGQGTTVTVSSASTKGPSVFPLAPSSKSTSGGTAALGCLVKDYFPEPVTVSWNSGALTSGVHTFPAVLQSSGLYSLSSVVTVPSSSLGTQTYICNVNHKPSNTKVDKRVEPKSCDKTHTCPPCPAPEAAGGPSVFLFPPKPKDTLMISRTPEVTCVVVDVSHEDPEVKFNWYVDGVEVHNAKTKPREEQYNSTYRVVSVLTVLHQDWLNGKEYKCKVSNKALPAPIEKTISKAKGQPREPQVYTLPPSREEMTKNQVSLWCLVKGFYPSDIAVEWESNGQPENNYKTTPPVLDSDGSFFLYSKLTVDKSRWQQGNVFSCSVMHEALHNHYTQKSLSLSPG
chain 2: EAVVTQEPSLTVSPGGTVTLTCRSSTGAVTTSNYANWVQEKPGQLPRGLIGGTNKRAPWVPARFSGSLLGGKAALTLSGAQPEDEAEYFCALWYSNLWVFGGGTKLTVLGQPKAAPSVTLFPPSSEELQANKATLVCLISDFYPGAVKVAWKADGSPVNTGVETTTPSKQSNNKYAASSYLSLTPEQWKSHRSYSCQVTHEGSTVEKTVAPAECSGGGGSEGKSSGSGSESKSTEGKSSGSGSESKSTGGGGSEVQLVESGGGLVQPGGSLKLSCAASGFTFNTYAMNWVRQAPGKGLEWVARIRSKYNNYATYYADSVKDRFTISRDDSKNTAYLQMNNLKTEDTAVYYCVRHGNFGNSYVSWFAYWGQGTLVTVSAASTKGPSVFPLAPSSKSTSGGTAALGCLVKDYFPEPVTVSWNSGALTSGVHTFPAVLQSSGLYSLSSVVTVPSSSLGTQTYICNVNHKPSNTKVDKRVEPKSCDKTHTCPPCPAPEAAGGPSVFLFPPKPKDTLMISRTPEVTCVVVDVSHEDPEVKFNWYVDGVEVHNAKTKPREEQYNSTYRVVSVLTVLHQDWLNGKEYKCKVSNKALPAPIEKTISKAKGQPREPQVYTLPPSREEMTKNQVSLSCAVKGFYPSDIAVEWESNGQPENNYKTTPPVLDSDGSFFLVSKLTVDKSRWQQGNVFSCSVMHEALHNRFTQKSLSLSPG
notes: as for B1
[1]
  EC90, 72 hour cytotoxicity assay (LDH release), non-stimulated PBMCs as effector cells, NCI-H82 target cells: 0.9 nM
  EC90, 72 hour cytotoxicity assay (LDH release), non-stimulated PBMCs as effector cells, SHP77 target cells: 1.5 nM
[2]
  EC90, 72 hour cytotoxicity assay, purified T cells as effector cells, NCI-H82 target cells: 0.27 nM
  EC90, 72 hour cytotoxicity assay, purified T cells as effector cells, SHP77 target cells: 0.02 nM
Cyno DLL3-His
  Affinity gap KD hu/cyno DLL3: 1
[4]
  binding result: no binding (tested: 1 µM)
[3]
  binding result: binds
